Assay results: article PMC6187371

Experiments:
duligotuzumab meFab = assay: single molecule localization microscopy
duligotuzumab memAb = assay: single molecule localization microscopy

Question: Which stoichiometry N (duligotuzumab meFab) does the source give for meditope-Alexa Fluor 647 (peptide) here?
Answer: The stoichiometry N was 1.

Question: And the stoichiometry N (duligotuzumab memAb)?
Answer: Its stoichiometry N is 2.
